Measured values: US20120039904A1 (Kyowa Kirin, published 2012)
Numbering of substitutions follows the chain as printed.

Columns and labels:
[1] = target: T1, human ASCT2 (system ASC amino acid transporter 2), endogenous on human tumour cell lines (human, UniProt Q15758 1-541); assay: flow cytometry on KMS-11 cells
T1 construct: Endogenous ASCT2 of cell lines KMS-11 (stated to express ASCT2 mRNA), WiDr and OPM-2; also called SLC1A5; ASCT2 on KMS-11, OPM-2, WiDr cells
T1 sequence: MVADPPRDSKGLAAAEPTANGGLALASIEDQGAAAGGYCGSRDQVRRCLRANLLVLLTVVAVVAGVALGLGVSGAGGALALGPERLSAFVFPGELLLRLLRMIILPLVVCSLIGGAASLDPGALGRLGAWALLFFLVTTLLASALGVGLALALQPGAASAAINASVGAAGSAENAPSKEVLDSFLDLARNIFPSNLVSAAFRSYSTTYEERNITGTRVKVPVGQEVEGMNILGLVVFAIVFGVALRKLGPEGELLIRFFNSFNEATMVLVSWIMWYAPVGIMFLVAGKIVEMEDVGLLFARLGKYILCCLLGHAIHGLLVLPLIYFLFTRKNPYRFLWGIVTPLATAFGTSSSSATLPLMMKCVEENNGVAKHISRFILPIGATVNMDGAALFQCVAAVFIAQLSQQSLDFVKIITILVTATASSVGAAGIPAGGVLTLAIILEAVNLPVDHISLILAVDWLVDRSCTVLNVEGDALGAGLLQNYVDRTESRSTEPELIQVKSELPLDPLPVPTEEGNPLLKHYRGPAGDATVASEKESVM

[2] = target: T2, mouse EL4 type ASCT2-myc/His (mouse/human chimeric ASCT2), expressed on CHO cells (human/mouse chimera, UniProt Q15758 1-541); assay: flow cytometry on mEL4/CHO cells; '+' = presence of reactivity
T2 construct: also called mEL4/CHO; mEL4
T2 sequence: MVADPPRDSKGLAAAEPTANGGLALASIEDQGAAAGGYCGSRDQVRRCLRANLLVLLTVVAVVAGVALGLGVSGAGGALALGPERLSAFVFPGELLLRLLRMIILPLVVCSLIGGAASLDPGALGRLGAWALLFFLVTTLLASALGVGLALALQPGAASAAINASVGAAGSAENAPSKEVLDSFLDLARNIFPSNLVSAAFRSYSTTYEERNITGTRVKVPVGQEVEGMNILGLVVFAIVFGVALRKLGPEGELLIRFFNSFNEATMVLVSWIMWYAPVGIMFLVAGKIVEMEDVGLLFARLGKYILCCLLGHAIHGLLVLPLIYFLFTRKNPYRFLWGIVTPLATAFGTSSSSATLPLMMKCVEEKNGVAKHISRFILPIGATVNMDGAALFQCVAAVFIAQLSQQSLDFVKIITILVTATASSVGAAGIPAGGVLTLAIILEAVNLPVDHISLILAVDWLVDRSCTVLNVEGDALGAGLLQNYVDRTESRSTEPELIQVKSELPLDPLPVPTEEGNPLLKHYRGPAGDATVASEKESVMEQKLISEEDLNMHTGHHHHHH
Experimental: (§1) Using the mouse ASCT2/CHO and mouse/human chimeric ASCT2/CHO cells constructed in Examples 10 and 11 and FITC-labeled anti-mouse immunoglobulin G (H+L) (manufactured by Dako) or ALEXA488-labeled anti-rat immunoglobulin G […] (manufactured by Invitrogen) as the secondary antibody, the reactivity of anti-ASCT2 monoclonal antibodies KM4008, KM4012 and KM4018 was measured in the same manner as in Example 9(1).
(§2) In Table 2, the symbols “+”, “−”, and “±” represent the presence of reactivity, the absence of reactivity, and the decrease in reactivity, respectively.

[3] = target: T3, human ASCT2-myc/His (fusion protein in which myc/His was added to the C-terminal of human ASCT2), expressed … (human, UniProt Q15758 1-541); assay: flow cytometry on human ASCT2/CHO cells; '+' = presence of reactivity
T3 construct: Amino acid transporter with C-terminal myc/His tag, stably expressed in CHO/DG44 cells; cell lysates of these cells were used for Western blotting and immunoprecipitation; also called ASCT2/CHO; human ASCT2-myc/His gene-introduced CHO cell
T3 sequence: T2 sequence with K367N

[4] = target: T4, mouse EL2 type ASCT2-myc/His (mouse/human chimeric ASCT2), expressed on CHO cells (human/mouse chimera); assay: flow cytometry on mEL2/CHO cells; '-' represents the absence of reactivity
T4 construct: also called mEL2/CHO; mEL2
T4 chain: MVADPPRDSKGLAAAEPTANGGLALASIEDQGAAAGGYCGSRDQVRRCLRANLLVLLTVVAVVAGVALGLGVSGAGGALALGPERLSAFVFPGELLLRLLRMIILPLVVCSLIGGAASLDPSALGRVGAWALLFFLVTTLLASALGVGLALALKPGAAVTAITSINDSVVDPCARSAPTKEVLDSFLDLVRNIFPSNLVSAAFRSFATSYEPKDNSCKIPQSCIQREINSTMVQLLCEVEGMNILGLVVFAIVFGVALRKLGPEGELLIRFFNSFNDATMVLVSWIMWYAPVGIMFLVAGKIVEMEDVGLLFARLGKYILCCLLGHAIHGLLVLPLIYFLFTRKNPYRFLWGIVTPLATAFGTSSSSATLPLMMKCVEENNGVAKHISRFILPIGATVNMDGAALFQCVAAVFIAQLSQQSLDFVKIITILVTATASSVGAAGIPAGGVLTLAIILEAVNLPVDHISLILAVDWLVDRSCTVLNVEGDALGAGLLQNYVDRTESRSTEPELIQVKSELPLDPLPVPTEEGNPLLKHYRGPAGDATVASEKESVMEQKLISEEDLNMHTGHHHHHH
Experimental: as §1, §2

[5] = target: T5, mouse ASCT2-myc/His, expressed on CHO cells (mouse, UniProt P51912 1-553); assay: flow cytometry on mouse ASCT2/CHO cells; '-' represents the absence of reactivity
T5 construct: also called mouse ASCT2/CHO
T5 sequence: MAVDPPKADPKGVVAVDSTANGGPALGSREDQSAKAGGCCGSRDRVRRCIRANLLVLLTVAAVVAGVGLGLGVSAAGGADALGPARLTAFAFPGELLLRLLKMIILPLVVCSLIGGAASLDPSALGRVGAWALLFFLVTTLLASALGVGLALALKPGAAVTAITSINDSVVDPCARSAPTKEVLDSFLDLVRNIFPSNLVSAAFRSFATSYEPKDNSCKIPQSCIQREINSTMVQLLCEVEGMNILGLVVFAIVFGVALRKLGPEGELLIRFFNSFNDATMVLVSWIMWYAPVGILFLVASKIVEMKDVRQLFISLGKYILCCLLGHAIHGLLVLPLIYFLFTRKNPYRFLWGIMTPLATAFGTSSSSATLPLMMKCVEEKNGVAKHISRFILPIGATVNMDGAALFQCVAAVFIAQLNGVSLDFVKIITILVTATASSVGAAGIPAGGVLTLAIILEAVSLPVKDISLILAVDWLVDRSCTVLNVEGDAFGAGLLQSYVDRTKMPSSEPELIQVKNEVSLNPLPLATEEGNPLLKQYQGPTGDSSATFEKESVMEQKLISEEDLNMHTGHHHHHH
Experimental: as §1, §2

B1: anti-ASCT2 monoclonal antibody KM4018 (antibody, rat IgG2a, V domains shown)
VH: EVQLVESGGGLVQSGRSIRLSCAASGFSFSNYYMAWVRQAPSKGLEWVASITKGGGNTYYRDSVKGRFTFSRDNAKSTLYLQMDSLRSEDTATYYCARQVTIAAVSTSYFDSWGQGVMVTVSS
VL: DIVLTQSPALAVSLGQRATISCKTNQKVDYYGNSYVYWYQQKPGQQPKLLIYLASNLASGIPARFSGRGSGTDFTLTIDPVEADDTATYYCQQSRNLPYTFGAGTKLELKR
notes: rat IgG2a, kappa
binding result [1]: binds | binding result [2]: binds | binding result [3]: binds | binding result [4]: no binding | binding result [5]: no binding
